According to paper PMC6900781:

B1: HA-dCENP-C(1264-1411) [Drosophila melanogaster] / CAL1-GFP-LacI [Drosophila melanogaster] (parent)
chain 1: GPVVFSTPLRDEQEEASTKLMQWLRGVGDAPPSASMSDENASVSSANELIFCQVDGIDYAFYNTKEKAMLGYMRFKPYQKRSMKQAKVHPLKLLVQFGEFNVETLAVGEEKEVHSVLRVGDMIEIDRGTRYSIQNAIDKVSVLMCIRS
chain 2: MANAVVDEETLEAMVYERSKAWSSKMADFASLEDGMEIDVAEFDNLFHGEDEDPDLDDVAKEAVEDNVPDEAKLEMGHINATSVTELTLILCANEDNEAKAEIEEILNQTVPVVEEHKRKWREAGLDRILDTFDEKQIEHHVGRWMRRHNSVYLEASPPKYLPPHHNSISDESDESMHSIDTARYIQQSRRRNAHMTNKNMTTIKMYRKHSHKRDELRAKYAYGDEQEHRHHMQAVLLRRRERERQLAYLASTPMQCVYSSGHHMRRKNLRKRRINSWMFDSASSSEEDTSFGGCDCHSCRRHYALSRSVYQSCPYGRGQREYHHRQMASRTMHTMRRQHTFDMEMDLRPRLPENECSCCNSDRLCSNVIHIANSSTEEWVVENRSNHLTQETQEKTRKQKHQPMDARKVSHQPVCSKGHEQKPLSSKATSVSKLVLSKEKYMQMFDSESSDEDNALAKKGLLCCSDKKKGMTFPTPNAAGKITHPTSSAKKAIRKEARPNGLAQIQEEGPTATNSPIESTYLPVAHMKSVSIDGSSGTSATFESPAKKAPKRGIRETSPLNGNELQQLISTIPIADEKASSLMEKVDNCIGRESFDDRNKDFMHMENSSTKTAVEKSTKQKRVSGKKSEIPKSIITNNEILEKNSTETLSEKQVAAKAKKQSVRKTGATGKPSTSRLKKSEKTKTTSSVTSTSKLEQVREEESDVSSEVLAKPKPQCSTTASILKQGGDGASNSEDDLQIALAMSKATYKEEQQKRKKTKREPSNKQPQSPAEKSMTVFNNQSVACNSTALANDTACYRVLPKRRGVKRAAAVSTTEEKTATNSSSSPTSSLEEMGSPTGGDPDCTVVTSTTGCEPPASERQEIPATIKITKRGILLHSPSAPEGASFTLTEQGLGKIIGERWARKYLKYHIGSRSFDSRHSVYYQPTPQLAAALSAPQDAQNIGNISGSSASDDDIFEQINRYGTVYSILENNSGDK
B2: HA-dCENP-C(1264-1411) [Drosophila melanogaster] / GFP-LacI-dCENP-C [Drosophila melanogaster] (parent)
chain 1: B1 chain 1
chain 2: MSKPQNNDTLELDDILSQPVKDKERFAAFMMRKLAENKPAQNDNLFGNFKLDFDLDFEVPLIKKSQAKPKSKLPEVQPLGELVSKNSAATEKVNEPPVDQAPNENVPPRRSPTLSPNNRRSMRRSGNVPGSDKLRRHAIRRRSRSCGRQLLPEFEETVNLTRSISSPVNFLPEISSTPCTEKQKEEVAKNTTRVETDKPAEKPMELSQEPEPENPLQTKVTSPARNPILAAEIEQICKERQSSFHKNVLQLDYSGRAPYSRPPTPSSPSVAGLRRTYTMEKGPAPGQLLLSPSHRYDTPSKMPVVKAKRFNQELMVPDTPERQSHDPAWQSEPQPEFVVPETQPQDLGELVQTLSRSAISPIVVINTSNSNRSVRRDAVAMKSVPTSPVTALSSPPIAPSPRRSAAASPQKSIAQLPRVEENMDAIMTDDESDEHPSTVPLNLAPSGGNTTRQRRLRSSNRARATIESQESSMRLLNLHKSVNAKKSKPRKTAIPLNKAPSAPINGEQFARELTRMSNYEILDLRKRNSLNEIYPLNGHRNHRSEKLILEEEIQRELLRRNLMDEAEGLPKQQSSDDSNEDYIPVPPKTQSLRTKSNDRSQGRGRPRSTRRDLPMTTELVNYLGLSQTLETRRKSSKDGKRCLYTKGSSDHEDNDSLSPVKLPRLSKSIQIVPPPPVSLRYSQSLQNLPCSGKFDFDNVVMAAPPDFHDSVNSDAIEIAPPPPEYVVNTRGRSTSGRKSNKNDLVLPPPGYEGGQEEEHDERPSQPRCTAKELQQSTQNGRRAMENELVPPPIEYVEEENRNNEQSRRSTKNGNLVDRNTHNAVEYCEPPEPPEYDDSDHGQASILRRSGKKLQHSKQSVQKSNKEQIIAPSYENNEDYDSDEEPIYNEEYGKEESQNKNVTRRKSDKDEMASHTLECIEGPDPNWNSSCNKQNRNHQNASKSKENDKLANRSSKSQKLSNPRQNAVGTEKSVALSNRGEECTEKSSDVMESLRVNTPTPPIDQNSDDVPSRNPSPSRTLLSDDVPSTSRAALEFLQRSQNMSKSRPPDESSADVVFKKPLAPAPRAKSKKGKSEVDKLKLAKMPVEAEELNTTGIRRSKRGQVPLQMSWCHTMDPSKFNFMSGFIEPRSKNSKTKKGNLSKAKKASATKPKPTVEKNLPDNRGPLCSSTPRISEKLPGAIPHSESLGLSTLTWEETEVQAEAEKVPKKRGRPKKAVGGVQTDTEAEPEPEPEPMISSVAPLTSDQEEPDVPDEQAPYTEAALGPVVFSTPLRDEQEEASTKLMQWLRGVGDAPPSASMSDENASVSSANELIFCQVDGIDYAFYNTKEKAMLGYMRFKPYQKRSMKQAKVHPLKLLVQFGEFNVETLAVGEEKEVHSVLRVGDMIEIDRGTRYSIQNAIDKVSVLMCIRS

Variants of: B1
Experiment: LacO-tethering recruitment assay (HA immunofluorescence intensity at LacO)
Conditions: with CAL1-GFP-LacI [Drosophila melanogaster]; parent: 0.68; read off a plot

| Variant | response (normalized to GFP) |
| --- | --- |
| chain 1 L94E L143E | 0.12 |

Variants of: B2
Experiment: as above
Conditions: with GFP-LacI-dCENP-C [Drosophila melanogaster]; parent: 1.6; read off a plot

| Variant | response (normalized to GFP) |
| --- | --- |
| chain 1 L94E L143E | -0.05 |
